Test results from publication PMC6323126, “Architecture, substructures, and dynamic assembly of STRIPAK complexes in Hippo signaling” (Cell Discovery, 2019).

T1: FHA domain (residues 5–135) of SLMAP (human, UniProt Q14BN4 5-135)
T1 construct: also called SLMAP (FHA); SLMAP FHA domain; source: E. coli BL21 (DE3) CodonPlus, purified
T1 sequence (looked up): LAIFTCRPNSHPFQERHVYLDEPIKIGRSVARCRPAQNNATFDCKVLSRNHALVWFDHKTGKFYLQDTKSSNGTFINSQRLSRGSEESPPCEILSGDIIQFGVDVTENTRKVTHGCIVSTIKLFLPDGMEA

T2: C-terminal domain (residues 421–837) of STRIP1, recombinant (UniProt Q5VSL9 421-837)
T2 sequence (looked up): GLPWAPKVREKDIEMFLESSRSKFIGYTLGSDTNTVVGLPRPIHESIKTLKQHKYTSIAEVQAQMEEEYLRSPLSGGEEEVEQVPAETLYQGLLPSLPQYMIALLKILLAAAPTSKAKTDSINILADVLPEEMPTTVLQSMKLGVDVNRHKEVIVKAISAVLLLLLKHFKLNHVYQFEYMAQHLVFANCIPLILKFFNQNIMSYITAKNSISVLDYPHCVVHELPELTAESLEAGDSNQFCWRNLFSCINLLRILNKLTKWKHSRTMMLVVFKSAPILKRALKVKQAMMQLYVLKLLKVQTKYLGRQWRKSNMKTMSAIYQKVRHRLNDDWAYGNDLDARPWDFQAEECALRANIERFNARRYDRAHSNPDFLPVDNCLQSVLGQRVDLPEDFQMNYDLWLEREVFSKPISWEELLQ

B1: STRIP1 (765–837) (domain or fragment, UniProt Q5VSL9 765-837, looked up)
chain: QAEECALRANIERFNARRYDRAHSNPDFLPVDNCLQSVLGQRVDLPEDFQMNYDLWLEREVFSKPISWEELLQ
B2: SIKE1 CC1 (residues 5–65) (domain or fragment, human, UniProt Q9BRV8 5-65, looked up)
chain: IEKILTDAKTLLERLREHDAAAESLVDQSAALHRRVAAMREAGTALPDQYQEDASDMKDMS
notes: SIKE1, human, residues 5-65; Homodimer within the 2:2 crystal complex; also called residues 5–65 of SIKE1; source: E. coli BL21 (DE3) CodonPlus, purified
B3: MST2 kinase domain (residues 1–308) (domain or fragment, human, UniProt Q13188 1-308, looked up)
chain: MEQPPAPKSKLKKLSEDSLTKQPEEVFDVLEKLGEGSYGSVFKAIHKESGQVVAIKQVPVESDLQEIIKEISIMQQCDSPYVVKYYGSYFKNTDLWIVMEYCGAGSVSDIIRLRNKTLIEDEIATILKSTLKGLEYLHFMRKIHRDIKAGNILLNTEGHAKLADFGVAGQLTDTMAKRNTVIGTPFWMAPEVIQEIGYNCVADIWSLGITSIEMAEGKPPYADIHPMRAIFMIPTNPPPTFRKPELWSDDFTDFVKKCLVKNPEQRATATQLLQHPFIKNAKPVSILRDLITEAMEIKAKRHEEQQRE
notes: also called kinase domain of MST2; source: E. coli BL21 (DE3) CodonPlus, purified
B4: MST4 kinase domain (residues 1–300) (domain or fragment)
chain: not shown
notes: MST4 (STK26), human, residues 1-300; also called N-terminal kinase domain of MST4; source: E. coli BL21 (DE3) CodonPlus, purified
B5: MST2 middle linker region (residues 308–435) (domain or fragment, human, UniProt Q13188 308-435, looked up)
chain: ELEEEEENSDEDELDSHTMVKTSVESVGTMRATSTMSEGAQTMIEHNSTMLESDLGTMVINSEDEEEEDGTMKRNATSPQVQRPSFMDYFDKQDFKNKSHENCNQNMHEPFPMSKNVFPDNWKVPQDG
notes: also called linker region of MST2; source: E. coli BL21 (DE3) CodonPlus, purified
B6: STRN3 coiled-coil domain (CC, amino acid residues 64–145) (domain or fragment, human, UniProt Q13033 64-145, looked up)
chain: TIPGILHYIQHEWARFEMERAHWEVERAELQARIAFLQGERKGQENLKKDLVRRIKMLEYALKQERAKYHKLKYGTELNQGD
notes: also called STRN3 CC; source: E. coli BL21 (DE3) CodonPlus, purified
B7: SIKE1 second coiled-coil (CC2) region, residues 72–121 (domain or fragment, human, UniProt Q9BRV8 72-121, looked up)
chain: LLSQENTQIRDLQQENRELWISLEEHQDALELIMSKYRKQMLQLMVAKKA
notes: Homotetramer in the apo crystal, homodimer in the crystal with the STRN3 peptide; A Se-Met form was used for phasing; also called SIKE1 CC2; source: E. coli BL21 (DE3) CodonPlus, purified
B8: MST2 (recombinant, wildtype) (enzyme, human, UniProt Q13188 1-491, looked up)
chain: MEQPPAPKSKLKKLSEDSLTKQPEEVFDVLEKLGEGSYGSVFKAIHKESGQVVAIKQVPVESDLQEIIKEISIMQQCDSPYVVKYYGSYFKNTDLWIVMEYCGAGSVSDIIRLRNKTLIEDEIATILKSTLKGLEYLHFMRKIHRDIKAGNILLNTEGHAKLADFGVAGQLTDTMAKRNTVIGTPFWMAPEVIQEIGYNCVADIWSLGITSIEMAEGKPPYADIHPMRAIFMIPTNPPPTFRKPELWSDDFTDFVKKCLVKNPEQRATATQLLQHPFIKNAKPVSILRDLITEAMEIKAKRHEEQQRELEEEEENSDEDELDSHTMVKTSVESVGTMRATSTMSEGAQTMIEHNSTMLESDLGTMVINSEDEEEEDGTMKRNATSPQVQRPSFMDYFDKQDFKNKSHENCNQNMHEPFPMSKNVFPDNWKVPQDGDFDFLKNLSLEELQMRLKALDPMMEREIEELRQRYTAKRQPILDAMDAKKRRQQNF
notes: MST2 (STK3), human; also called STK3; Hippo kinase MST2; source: E. coli BL21 (DE3) CodonPlus, purified
B9: GST-tagged MST2 (enzyme, human, UniProt Q13188 1-491, looked up)
chain: B8 chain
notes: MST2 (STK3), human; also called MST2/pMST2; source: E. coli BL21 (DE3) CodonPlus, purified; not shown: GST, N-terminal, kept
B10: STRN3 fragment (residues 64–341), tag not told (domain or fragment, human, UniProt Q13033 64-341, looked up)
chain: TIPGILHYIQHEWARFEMERAHWEVERAELQARIAFLQGERKGQENLKKDLVRRIKMLEYALKQERAKYHKLKYGTELNQGDLKMPTFESEETKDTEAPTAPQNSQLTWKQGRQLLRQYLQEVGYTDTILDVRSQRVRSLLGLSNSEPNGSVETKNLEQILNGGESPKQKGQEIKRSSGDVLETFNFLENADDSDEDEENDMIEGIPEGKDKHRMNKHKIGNEGLAADLTDDPDTEEALKEFDFLVTAEDGEGAGEARSSGDGTEWDKDDLSPTAEVW
notes: source: E. coli BL21 (DE3) CodonPlus, purified
B11: MBP-tagged STRN3 fragment (residues 64–341) (domain or fragment, human, UniProt Q13033 64-341, looked up)
chain: B10 chain
notes: source: E. coli BL21 (DE3) CodonPlus, purified; not shown: MBP, N-terminal, kept
B12: MST4 (recombinant) (enzyme)
chain: not shown
notes: MST4 (STK26), human; also called STK26; source: E. coli BL21 (DE3) CodonPlus, purified

Columns and labels:
[1] = target: B6; experiment: ITC; iTC200, 25 °C, 20 mM HEPES (pH 7.5), 100 mM NaCl; conditions: both partners purified
[2] = target: the molecule itself; experiment: crystal structure; SIKE1 CC1-SLMAP CC1 complex reconstituted 1:1 and gel-filtered, 2.3 Å; 0.1 M sodium citrate (pH 5.5), 15% PEG 6000, 16 °C
[3] = target: T3, STRIP1 (full-length, His-tagged, insect cells) (UniProt Q5VSL9 1-837); experiment: pull-down; MBP pulldown: MBP-tagged protein, partner and amylose resin mixed at 4 °C for 1 h in 20 mM HEPES (pH 7.5), 100 mM NaCl; eluted with 20 mM maltose; SDS-PAGE, Coomassie staining; conditions: both partners purified
T3 construct: STRIP1, full length; His tag is TEV-cleavable; also called His-STRIP1; FAM40A; source: High Five insect cells (baculovirus), purified

[4] = target: T3, STRIP1 (full-length, His-tagged, insect …); experiment: pull-down; pulldown with purified recombinant proteins shown in supplementary figures; whether GST or MBP and who carried the tag not told; conditions: both partners purified
[5] = target: T1, FHA domain (residues 5–135) of SLMAP; experiment: pull-down; GST pulldown: GST-tagged protein, partner and glutathione Sepharose mixed at 4 °C for 1 h in 20 mM HEPES (pH 7.5), 100 mM NaCl; eluted with 20 mM reduced glutathione; SDS-PAGE, Coomassie staining; conditions: both partners purified
[6] = target: T2, C-terminal domain (residues 421–837) of …; experiment: pull-down; pulldown with purified recombinant proteins shown in supplementary figures; whether GST or MBP and who carried the tag not told; conditions: both partners purified
[7] = target: B4; experiment: as above; conditions: both partners purified
[8] = target: B8; experiment: pull-down; GST pulldown: GST-tagged protein, partner and glutathione Sepharose mixed at 4 °C for 1 h in 20 mM HEPES (pH 7.5), 100 mM NaCl; eluted with 20 mM reduced glutathione; SDS-PAGE, Coomassie staining; conditions: both partners purified
[9] = target: the molecule itself; experiment: crystal structure; SIKE1 CC2 mixed with STRN3 peptide (166–190) at 1:1.2 molar ratio, 1.75 Å; 35% MPD, 0.1 M imidazole (pH 7.5), 16 °C
[10] = target: the molecule itself; experiment: crystal structure; apo SIKE1 CC2, 1.5 Å; 0.1 M Tris (pH 8.5), 0.7 M ammonium tartrate dibasic, 16 °C
[11] = target: T3, STRIP1 (full-length, His-tagged, insect …); experiment: pull-down; GST pulldown: GST-tagged protein, partner and glutathione Sepharose mixed at 4 °C for 1 h in 20 mM HEPES (pH 7.5), 100 mM NaCl; eluted with 20 mM reduced glutathione; SDS-PAGE, Coomassie staining; conditions: both partners purified
[12] = target: T3, STRIP1 (full-length, His-tagged, insect …); experiment: pull-down; pulldown with the kinase dephosphorylated with λPPase and then autophosphorylated with ATP (and magnesium ion); conditions: both partners purified
[13] = target: B7; experiment: crystal structure; SIKE1 CC2 mixed with STRN3 peptide (166–190) at 1:1.2 molar ratio, 1.75 Å; 35% MPD, 0.1 M imidazole (pH 7.5), 16 °C; conditions: both partners purified
[14] = target: B7; experiment: ITC; iTC200, 25 °C, 20 mM HEPES (pH 7.5), 100 mM NaCl; conditions: both partners purified

**Q.** How did the Kd [1] turn out when B1 was run?
**A.** 1600 nM

**Q.** How did the “stoichiometry N” value [2] turn out when B2 was run?
**A.** 2

**Q.** Does B3 bind [3]?
**A.** binds

**Q.** Does B4 bind [4]?
**A.** binds

**Q.** Does B5 bind [5]?
**A.** binds

**Q.** Does B6 bind [6]?
**A.** binds

**Q.** Does B6 bind [7]?
**A.** binds

**Q.** Does B6 bind [8]?
**A.** binds

**Q.** Does B6 bind [3]?
**A.** binds

**Q.** For B7, which “stoichiometry N” value [9] is on record?
**A.** 2

**Q.** And the “stoichiometry N” value [10]?
**A.** 4

**Q.** Does B8 bind [11]?
**A.** binds

**Q.** Does B9 bind [12]?
**A.** binds

**Q.** How did the “stoichiometry N” value [13] turn out when QNSQLTWKQGRQLLRQYLQEVGYTD (peptide, UniProt Q13033 166-190, looked up) [STRN3 peptide (residues 166–190)] was run?
**A.** 2 SIKE1 CC2 per STRN3 peptide

**Q.** What about the Kd [14] of the same binder?
**A.** 2900 nM

**Q.** Does B10 bind [8]?
**A.** binds

**Q.** Does B11 bind [3]?
**A.** binds

**Q.** Does B12 bind [11]?
**A.** binds
